Test results reported in patent US20140087995A1 (published 2014).
Numbered stars: 1 amine (or outer) side, 2 acyl side, 3 side chain; on linkers, the order of the positions; unused ones are H or OH. Bridge positions count the residues as written; N and C are the ends. Side chains are listed from the residue outwards. Ends that are not written are not given here. * marks the point of attachment. C20 diacid = O=C(O)CCCCCCCCCCCCCCCCCCC(=O)*; γGlu = O=C(O)[C@H](CCC(=O)[*:2])N[*:1]; AEEA = NCCOCCOCC(=O)O

Target: T1, human calcitonin receptor (human, UniProt P30988 25-474)
T1 sequence (looked up): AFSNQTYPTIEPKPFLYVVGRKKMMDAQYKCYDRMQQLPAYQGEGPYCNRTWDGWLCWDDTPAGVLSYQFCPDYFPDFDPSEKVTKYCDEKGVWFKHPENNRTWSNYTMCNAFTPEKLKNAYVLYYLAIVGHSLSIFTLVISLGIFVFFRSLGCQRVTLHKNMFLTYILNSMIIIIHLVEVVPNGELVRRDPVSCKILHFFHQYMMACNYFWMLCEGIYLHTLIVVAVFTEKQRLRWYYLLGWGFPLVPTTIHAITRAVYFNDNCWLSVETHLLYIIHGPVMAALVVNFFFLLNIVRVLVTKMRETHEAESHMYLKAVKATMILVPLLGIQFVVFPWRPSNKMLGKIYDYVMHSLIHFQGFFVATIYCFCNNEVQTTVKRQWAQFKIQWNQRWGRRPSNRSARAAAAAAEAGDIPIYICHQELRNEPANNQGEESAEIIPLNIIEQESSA
Assay: cell-based or functional assay

B1: N^ε1-[2-[2-[2-[[(4S)-4-carboxy-4-(19-carboxynonadecanoylamino)butanoyl]amino]ethoxy]ethoxy]acetyl]-[Arg17,Pro21,Pro27,Pro34]-h-amylin (peptide)
peptide: K([AEEA-γGlu-C20 diacid])CNTATCATQRLANFLRHSSPNFGAIPSSTNVGPNTY-NH2
modifications: disulfide 2-7; N-terminus assumed
SMILES: CC[C@H](C)[C@H](NC(=O)[C@H](C)NC(=O)CNC(=O)[C@H](Cc1ccccc1)NC(=O)[C@H](CC(N)=O)NC(=O)[C@@H]1CCCN1C(=O)[C@H](CO)NC(=O)[C@H](CO)NC(=O)[C@H](Cc1c[nH]cn1)NC(=O)[C@H](CCCNC(=N)N)NC(=O)[C@H](CC(C)C)NC(=O)[C@H](Cc1ccccc1)NC(=O)[C@H](CC(N)=O)NC(=O)[C@H](C)NC(=O)[C@H](CC(C)C)NC(=O)[C@H](CCCNC(=N)N)NC(=O)[C@H](CCC(N)=O)NC(=O)[C@@H](NC(=O)[C@H](C)NC(=O)[C@@H]1CSSC[C@H](NC(=O)[C@@H](N)CCCCNC(=O)COCCOCCNC(=O)CC[C@H](NC(=O)CCCCCCCCCCCCCCCCCCC(=O)O)C(=O)O)C(=O)N[C@@H](CC(N)=O)C(=O)N[C@@H]([C@@H](C)O)C(=O)N[C@@H](C)C(=O)N[C@@H]([C@@H](C)O)C(=O)N1)[C@@H](C)O)C(=O)N1CCC[C@H]1C(=O)N[C@@H](CO)C(=O)N[C@@H](CO)C(=O)N[C@H](C(=O)N[C@@H](CC(N)=O)C(=O)N[C@H](C(=O)NCC(=O)N1CCC[C@H]1C(=O)N[C@@H](CC(N)=O)C(=O)N[C@H](C(=O)N[C@@H](Cc1ccc(O)cc1)C(N)=O)[C@@H](C)O)C(C)C)[C@@H](C)O
notes: analogue of human amylin; also called compound 50
hCTR funct. EC50: 0.662 nM

B2: N^ε1-[2-[2-[2-[[(4S)-4-carboxy-4-(19-carboxynonadecanoylamino)butanoyl]amino]ethoxy]ethoxy]acetyl]-[His14,Arg17,Pro21,Pro27,Pro31]-h-amylin (peptide)
peptide: K([AEEA-γGlu-C20 diacid])CNTATCATQRLAHFLRHSSPNFGAIPSSTPVGSNTY-NH2
modifications: disulfide 2-7; N-terminus assumed
SMILES: CC[C@H](C)[C@H](NC(=O)[C@H](C)NC(=O)CNC(=O)[C@H](Cc1ccccc1)NC(=O)[C@H](CC(N)=O)NC(=O)[C@@H]1CCCN1C(=O)[C@H](CO)NC(=O)[C@H](CO)NC(=O)[C@H](Cc1c[nH]cn1)NC(=O)[C@H](CCCNC(=N)N)NC(=O)[C@H](CC(C)C)NC(=O)[C@H](Cc1ccccc1)NC(=O)[C@H](Cc1c[nH]cn1)NC(=O)[C@H](C)NC(=O)[C@H](CC(C)C)NC(=O)[C@H](CCCNC(=N)N)NC(=O)[C@H](CCC(N)=O)NC(=O)[C@@H](NC(=O)[C@H](C)NC(=O)[C@@H]1CSSC[C@H](NC(=O)[C@@H](N)CCCCNC(=O)COCCOCCNC(=O)CC[C@H](NC(=O)CCCCCCCCCCCCCCCCCCC(=O)O)C(=O)O)C(=O)N[C@@H](CC(N)=O)C(=O)N[C@@H]([C@@H](C)O)C(=O)N[C@@H](C)C(=O)N[C@@H]([C@@H](C)O)C(=O)N1)[C@@H](C)O)C(=O)N1CCC[C@H]1C(=O)N[C@@H](CO)C(=O)N[C@@H](CO)C(=O)N[C@H](C(=O)N1CCC[C@H]1C(=O)N[C@H](C(=O)NCC(=O)N[C@@H](CO)C(=O)N[C@@H](CC(N)=O)C(=O)N[C@H](C(=O)N[C@@H](Cc1ccc(O)cc1)C(N)=O)[C@@H](C)O)C(C)C)[C@@H](C)O
notes: analogue of human amylin; also called compound 61
hCTR funct. EC50: 0.554 nM
